Measurements as given in CN115505045A (MABWELL SHANGHAI BIOSCIENCE CO LTD, dated 2022).
Values belong to the binder of their own block, whether it stands above or below them.

Legend:
[1] = target: T1, 鼠重组蛋白LAG-3(Cat:53069-M08H，北京义翘神州科技股份有限公司) (mouse, UniProt Q61790 24-442); experiment: ELISA, antigen coated at 1 μg/mL
T1 construct: also called 小鼠LAG-3; 鼠LAG-3
T1 sequence (looked up): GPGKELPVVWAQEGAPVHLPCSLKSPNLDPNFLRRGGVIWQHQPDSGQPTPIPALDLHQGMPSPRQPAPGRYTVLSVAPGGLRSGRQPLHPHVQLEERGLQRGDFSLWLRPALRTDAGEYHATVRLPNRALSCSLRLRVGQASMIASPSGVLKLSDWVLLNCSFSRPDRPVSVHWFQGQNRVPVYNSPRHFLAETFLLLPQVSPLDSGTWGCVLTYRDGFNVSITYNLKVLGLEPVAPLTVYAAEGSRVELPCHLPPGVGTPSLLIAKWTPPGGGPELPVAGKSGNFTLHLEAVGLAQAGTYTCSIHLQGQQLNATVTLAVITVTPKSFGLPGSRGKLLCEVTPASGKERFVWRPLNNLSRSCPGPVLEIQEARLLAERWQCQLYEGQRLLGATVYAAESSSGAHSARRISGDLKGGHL

[2] = target: T2, 人LAG-3胞外区融合蛋白(义翘神州，Cat:16498-H08H) (human, UniProt P18627 23-450); experiment: SPR (Reichert 4SPR), antibody captured by anti-human Fc, antigen in flow
T2 construct: extracellular domain; also called 人重组蛋白LAG-3; 人LAG-3重组蛋白
T2 sequence (looked up): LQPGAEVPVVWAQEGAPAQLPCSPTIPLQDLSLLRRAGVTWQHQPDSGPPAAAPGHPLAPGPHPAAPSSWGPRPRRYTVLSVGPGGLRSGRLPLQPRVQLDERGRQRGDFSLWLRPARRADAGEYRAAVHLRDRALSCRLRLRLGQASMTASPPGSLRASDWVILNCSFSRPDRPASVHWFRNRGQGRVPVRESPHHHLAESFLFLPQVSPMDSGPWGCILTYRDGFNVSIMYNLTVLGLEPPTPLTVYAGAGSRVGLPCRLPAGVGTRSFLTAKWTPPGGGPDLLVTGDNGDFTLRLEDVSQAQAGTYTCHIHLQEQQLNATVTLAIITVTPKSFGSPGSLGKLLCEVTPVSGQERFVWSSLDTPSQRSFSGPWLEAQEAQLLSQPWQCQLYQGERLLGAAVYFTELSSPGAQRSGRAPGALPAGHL

[3] = target: T3, LAG-3(NCBI登录号:NP_002277.4)全长, HEK293细胞表面 (human, UniProt P18627 23-525); experiment: flow cytometry on HEK293 cells transfected with full-length LAG-3
T3 construct: whole, on cells; also called HEK293-LAG-3; 细胞表面LAG-3
T3 sequence (looked up): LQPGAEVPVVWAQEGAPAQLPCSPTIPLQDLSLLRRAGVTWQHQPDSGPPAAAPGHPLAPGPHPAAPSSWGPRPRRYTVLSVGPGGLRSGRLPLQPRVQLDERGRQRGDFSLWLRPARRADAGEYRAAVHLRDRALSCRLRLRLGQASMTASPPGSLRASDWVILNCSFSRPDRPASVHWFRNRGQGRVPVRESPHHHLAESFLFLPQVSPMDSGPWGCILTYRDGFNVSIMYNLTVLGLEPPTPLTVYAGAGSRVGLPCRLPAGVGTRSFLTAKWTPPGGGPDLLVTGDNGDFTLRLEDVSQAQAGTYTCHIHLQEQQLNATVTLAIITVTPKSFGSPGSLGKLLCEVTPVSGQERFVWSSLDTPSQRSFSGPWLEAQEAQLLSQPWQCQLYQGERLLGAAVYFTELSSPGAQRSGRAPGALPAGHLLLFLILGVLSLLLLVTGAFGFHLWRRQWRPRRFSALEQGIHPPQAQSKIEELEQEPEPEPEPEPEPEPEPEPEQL

肿瘤细胞MBA-MD-231细胞表面的PD-L1 = target: T4, 肿瘤细胞MBA-MD-231细胞表面的PD-L1 (UniProt Q9NZQ7 19-290, limits assumed); experiment: flow cytometry on MBA-MD-231 tumour cells
T4 construct: whole, on cells; also called 细胞表面PD-L1
T4 sequence (Q9NZQ7 19-290 limits assumed): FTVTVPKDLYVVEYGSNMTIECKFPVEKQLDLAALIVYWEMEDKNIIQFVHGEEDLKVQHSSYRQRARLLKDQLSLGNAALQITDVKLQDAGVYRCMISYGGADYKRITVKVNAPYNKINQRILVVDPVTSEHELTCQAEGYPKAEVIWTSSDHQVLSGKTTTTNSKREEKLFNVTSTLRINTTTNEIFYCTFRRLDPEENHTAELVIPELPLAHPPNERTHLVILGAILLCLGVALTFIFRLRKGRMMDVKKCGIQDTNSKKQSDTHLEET

[4] = target: T5, 人PD-L1 on CHO-PD-L1-CD3L细胞 (human, UniProt Q9NZQ7 19-290); experiment: flow cytometry, double-positive cells (CFSE-labelled CHO-PD-L1-CD3L with HEK-293-LAG3-OFP)
T5 construct: whole, on cells; also called 高表达人PD-L1的CHO细胞
T5 sequence (Q9NZQ7 19-290): as the sequence (Q9NZQ7 19-290 limits assumed) above

[5] = target: T6, LAG-3-OFP(NCBI登录号:NP_002277.4) on HEK293细胞 (human, UniProt P18627 23-525); experiment: as above
T6 construct: whole, on cells; also called HEK-293-LAG3-OFP; HEK293-LAG-3
T6 sequence (looked up): T3 sequence (looked up)

[6] = target: T7, 鼠PD-L1(Cat:50010-M08H，北京义翘神州科技股份有限公司) (mouse, UniProt Q9EP73 19-238); experiment: ELISA, antigen coated at 1 μg/mL
T7 construct: also called 小鼠PD-L1
T7 sequence (Q9EP73 19-238 limits assumed, stated change not applied): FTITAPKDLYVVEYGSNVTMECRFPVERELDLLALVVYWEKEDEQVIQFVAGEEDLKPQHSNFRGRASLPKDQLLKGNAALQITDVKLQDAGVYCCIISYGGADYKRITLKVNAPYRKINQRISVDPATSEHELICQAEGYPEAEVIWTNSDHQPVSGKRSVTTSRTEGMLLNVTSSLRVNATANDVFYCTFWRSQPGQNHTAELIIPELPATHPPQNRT

binding result [1]: no binding (tested: 1μg/mL)
B1: 对照抗体BMS-986016 (antibody, human IgG4 S228P, kappa, V domains shown)
VH: QVQLQQWGAGLLKPSETLSLTCAVYGGSFSDYYWNWIRQPPGKGLEWIGEINHRGSTNSNPSLKSRVTLSLDTSKNQFSLKLRSVTAADTAVYYCAFGYSDYEYNWFDPWGQGTLVTVSS
VL: EIVLTQSPATLSLSPGERATLSCRASQSISSYLAWYQQKPGQAPRLLIYDASNRATGIPARFSGSGSGTDFTLTISSLEPEDFAVYYCQQRSNWPLTFGQGTNLEIKR

binding result [2]: binds | binding result [3]: binds
B2: 人源化抗体hz7F10 (antibody, human IgG1, kappa, L234A L235A, V domains shown)
VH: EVQLVQSGAEVKKPGASVKVSCKASGVNIKDDYMHWVRQAPGQGLEWIGRIDPEDVETKYDPKFQGRVTITADTSTSTAYMELSSLRSEDTAVYYCARSFYSNYVNYFDQWGQGTLVTVSS
VL: DIQMTQSPSSLSASVGDRVTITCKASENVGTYVSWFQQKPGKAPKLLIYGASNRYTGVPSRFSGSGSGTDFTLTISSLQPEDFATYYCGQSYSYPYTFGQGTKLEIKR
notes: Humanised from mouse antibody 7F10; also called 裸抗体hz7F10; 抗LAG-3抗体hz7F10

binding result [2]: binds | binding result [3]: binds | binding result (肿瘤细胞MBA-MD-231细胞表面的PD-L1): binds | binding result [4]: binds | binding result [5]: binds | binding result [1]: no binding (tested: 1μg/mL) | binding result [6]: no binding (tested: 1μg/mL)
B3: hz7F10-hzB6 (bispecific antibody, human IgG1, kappa, L234A L235A)
heavy: not shown
light: DIQMTQSPSSLSASVGDRVTITCKASENVGTYVSWFQQKPGKAPKLLIYGASNRYTGVPSRFSGSGSGTDFTLTISSLQPEDFATYYCGQSYSYPYTFGQGTKLEIKRTVAAPSVFIFPPSDEQLKSGTASVVCLLNNFYPREAKVQWKVDNALQSGNSQESVTEQDSKDSTYSLSSTLTLSKADYEKHKVYACEVTHQGLSSPVTKSFNRGEC
notes: Expressed transiently in HEK293 cells; also called 抗人LAG-3/PD-L1双特异抗体; LAG-3/PD-L1双特异抗体

binding result [2]: binds | binding result [3]: binds | binding result (肿瘤细胞MBA-MD-231细胞表面的PD-L1): binds | binding result [1]: no binding (tested: 1μg/mL) | binding result [6]: no binding (tested: 1μg/mL)
B4: hz7F10-hzF2 (bispecific antibody, human IgG1, kappa, L234A L235A)
heavy: not shown
light: B3 light
notes: as for B3
